Reference: publication PMC8024975

Biological target: P. aeruginosa ClpGGI WT (P. aeruginosa)

B1: peptide 134 (peptide)
peptide: FLRYLKASKVPLN
ATPase activity of 1 μM ClpGGI with increasing Pep134 concentrations (saturation of the stimulation at 25 μM peptide) (ATP min^−1 monomer^−1): 108
